Reference: patent US20170304384A1 (AFFIRIS, published 2017)
Ends that are not written are not given here.

T1: peptide p7605 (human, not fully specified (residue 1))
T1 peptide: CSEIVL

T2: peptide p7564 (human, not fully specified (residue 1))
T2 construct: also called cleaved peptide
T2 peptide: CPSDSSEIVLD

T3: peptide p7562 (human, not fully specified (residue 1))
T3 peptide: CDSSEIVLD

T4: peptide p7552 (human, not fully specified (residue 1))
T4 peptide: CSSEIVLD

T5: peptide p6773 (human, not fully specified (residue 18))
T5 peptide: LPQPPPQAQPLLPQPQPC


Assays:
peptide p7605 = molecular target: T1, peptide p7605; experiment: peptide ELISA
peptide p7564 = molecular target: T2, peptide p7564; experiment: peptide ELISA
peptide p7562 = molecular target: T3, peptide p7562; experiment: peptide ELISA at a mAB concentration of 1 ng/µl
peptide p7552 = molecular target: T4, peptide p7552; experiment: peptide ELISA at a mAB concentration of 1 ng/µl
[1] = molecular target: T6, recombinant N-terminal 610 amino acids Huntingtin fragment recHTT610 (human, UniProt P42858 1-610); experiment: recHTT610 capture ELISA
T6 construct: range 1-610; Expressed in HEK293 freestyle cells and captured from cell extract by anti-V5 antibody; also called recombinant Huntingtin; reHTT610; not shown: two C-terminal V5 tags
T6 sequence (P42858 1-610): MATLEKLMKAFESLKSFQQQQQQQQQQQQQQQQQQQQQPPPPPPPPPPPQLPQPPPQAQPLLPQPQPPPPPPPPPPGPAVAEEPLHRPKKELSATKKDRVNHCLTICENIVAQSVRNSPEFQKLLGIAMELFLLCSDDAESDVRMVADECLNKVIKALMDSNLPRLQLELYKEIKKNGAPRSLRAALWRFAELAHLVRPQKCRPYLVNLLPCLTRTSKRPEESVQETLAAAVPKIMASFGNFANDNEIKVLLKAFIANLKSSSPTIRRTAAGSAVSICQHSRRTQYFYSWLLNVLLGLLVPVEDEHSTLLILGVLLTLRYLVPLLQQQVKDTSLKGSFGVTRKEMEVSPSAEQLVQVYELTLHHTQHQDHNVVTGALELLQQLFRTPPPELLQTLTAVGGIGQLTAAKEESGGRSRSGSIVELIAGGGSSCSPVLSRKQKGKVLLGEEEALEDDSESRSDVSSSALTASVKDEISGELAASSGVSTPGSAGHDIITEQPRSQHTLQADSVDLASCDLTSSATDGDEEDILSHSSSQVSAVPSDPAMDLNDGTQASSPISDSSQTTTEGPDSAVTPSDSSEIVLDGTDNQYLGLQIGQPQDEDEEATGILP
Experimental: Binding of antibodies to N-terminal fragment HTT610 was determined by a standard protein capture ELISA procedure using Maxisorb™ ELISA plates (Thermo; CatNr. 439454), coated with 50 μl of a 1:5000 rabbit anti V5 mAB (Sigma, CatNr. V8137), blocking with blocking buffer (PBS, 1% BSA, 0.1% Tween 20), capturing of recombinant Huntingtin from HEK cell extracts (100 ng/μl total protein) followed by incubation with several dilutions of mouse anti HTT sera (1:100; 1:300 and 1:900) or with mAB2166 as reference (diluted 1:2000; Millipore, Cat Nr. MAB2166) for 1 hour at RT. ELISA incubations, washing and detection procedures were performed according to standard procedures.
In contrast to specific anti peptide signals (FIG. 11), only 2 out of 9 mAB candidates, namely PRR13 and PRR18, specifically recognize recombinant Huntingtin when tested by recHTT610 capture ELISA (as explained in Example 1). These two candidates provided an outstanding signal to noise ratio (i.e. >=4; calculated reHTT610-specific signal: HEK ctrl extracts), and PRR13 was selected for epitope characterization (see Example 4) and variable chain sequencing (see below). PRR13 was determined as IgG subtype mouse IgG2a.

peptide p6773 = molecular target: T5, peptide p6773; experiment: peptide ELISA / peptide microarray

| binding result (peptide p7564) | binding result (peptide p7562) | binding result (peptide p7552) | signal to noise ratio (reHTT610-specific signal : HEK ctrl extracts) [1] | binding result (peptide p6773) | Binder | binding result (peptide p7605) |
| --- | --- | --- | --- | --- | --- | --- |
| binds | binds | binds | – | – | monoclonal antibody M1D1 (antibody, mouse IgM, V domains shown, Mouse hybridoma mAb raised with p7564, typed mouse IgM; The consensus entries appear to include the leader and the start of the constant region; also called mAB M1D1) VH: EVQLVESGGGLVQPKGSLKLSCAASGFTFNTYAMNWVRQAPGKGLEWVARIRSKSNNYATYYADSVKDRFTISRDDSQSMLYLQMNNLKTEDTAMYYCVRHGEYGNPWFAYWGQGTLVTVSA VL: not shown | no binding (tested: mAB concentration of 1 ng/µl) |
| – | – | – | ≥ 4 ratio | binds | monoclonal antibody PRR13 (antibody, mouse IgG2a, V domains shown, Mouse hybridoma mAb raised with p6773, typed mouse IgG2a; The consensus entries come from cDNA and appear to include the leader and the start of the constant region; also called mAB PRR13) VH: EVQLQQSAPELVKPGASVKMSCKASGYSFTDFYMKWVKQSHGKGLEWIGDIDPKNGDTFYNQKFKGRATLTVDKSSSTAYMQLNSLTTEDSAVYYCATYYGYTMDYWGQGTSVTVSS VL: QIVLTQSPAIMSASLGERVTMTCTASSSVTSSYLHWYQQKPGSSPKLWIYSTSNLASGVPARFSGSGSGTSYSLTISSMEAEDAATYYCHQYRRPPRTFGGGTKLEIKR | – |
